± gives the standard deviation of the averaged measurements.
Assays:
Saccharomyces cerevisiae [1] = test: protein stability index of tFT-peptide fusion (C-terminal peptide) (PSI (0-1 scale)); higher = more stable (slower turnover); conditions: genetic background: wild type; temperature: 30 C
Saccharomyces cerevisiae [2] = test: as above
Experimental: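 MPS profiling in S. cerevisiae of the tFT-X12 degron library: putative degron peptides plus stable controls, 12 aa, fused to the C-terminus of a sfGFP-mCherry timer. Cells are FACS-sorted into 8 mCherry/sfGFP bins and deep-sequenced. PSI runs from 0 (unstable) to 1 (stable). Backgrounds are wild type, das1Δ and doa10Δ at 30 °C, and wild type, das1Δ, cdc34-1 and cdc53-1 at 37 °C; 2-3 technical replicates each.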

[3] = genetic background: cdc34-1, temperature: 37 C
[4] = genetic background: cdc53-1, temperature: 37 C
[5] = genetic background: das1 deletion, temperature: 30 C
[6] = genetic background: das1 deletion, temperature: 37 C
[7] = genetic background: doa10 deletion, temperature: 30 C
[8] = genetic background: wild type, temperature: 30 C
[9] = genetic background: wild type, temperature: 37 C
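Further: PSI is a weighted mean of sequencing reads over stability bins, variants kept only with over 10 reads, mCherry proximal and sfGFP distal, peptide attached via GGGS linker.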

Row | Sequence | protein stability index (Saccharomyces cerevisiae [1]) | protein stability index (Saccharomyces cerevisiae [2]; [3]) | protein stability index (Saccharomyces cerevisiae [2]; [4]) | protein stability index (Saccharomyces cerevisiae [2]; [5]) | protein stability index (Saccharomyces cerevisiae [2]; [6]) | protein stability index (Saccharomyces cerevisiae [2]; [7]) | protein stability index (Saccharomyces cerevisiae [2]; [8]) | protein stability index (Saccharomyces cerevisiae [2]; [9])
1 | WVVWWFACVFGV | 0.309 ± 0.049 | 0.346 ± 0.009 | 0.404 ± 0.0089 | 0.286 ± 0.033 | 0.429 ± 0.019 | 0.264 ± 0.008 | 0.28 ± 0.019 | 0.413 ± 0.0073
2 | WCCVFVARFFWL | 0.413 ± 0.04 | 0.416 ± 0.013 | 0.504 ± 0.013 | 0.348 ± 0.031 | 0.499 ± 0.014 | 0.334 ± 0.0061 | 0.342 ± 0.011 | 0.44 ± 0.008
3 | PPPRSLSPPLLS | 0.409 ± 0.0037 | 0.642 ± 0.0076 | 0.7372 ± 0.0019 | 0.643 ± 0.025 | 0.704 ± 0.0013 | 0.6711 ± 0.0062 | 0.659 ± 0.014 | 0.681 ± 0.023
4 | FFLLSVVLKYSV | 0.19 ± 0.015 | 0.0374 ± 0.0046 | 0.08659 ± 0.00036 | 0.103 ± 0.029 | 0.174 ± 0.0019 | 0.093 ± 0.021 | 0.0922 ± 0.021 | 0.14 ± 0.0075
5 | YLVSFVAFLRLF | 0.143 ± 0.19 | 0.336 ± 0.02 | 0.446 ± 0.013 | 0.422 ± 0.025 | 0.5418 ± 0.0026 | 0.0967 ± 0.012 | 0.0919 ± 0.018 | 0.1 ± 0.019
6 | CALFLLSSPSPT | 0.699 ± 0.011 | 0.713 ± 0.061 | 0.781 ± 0.01 | 0.634 ± 0.018 | 0.768 ± 0.012 | 0.659 ± 0.021 | 0.6451 ± 0.0031 | 0.7356 ± 0.0054
7 | LFTRSIRNLKSL | 0.452 ± 0.033 | 0.653 ± 0.057 | 0.7269 ± 0.007 | 0.664 ± 0.0086 | 0.738 ± 0.02 | 0.303 ± 0.0033 | 0.291 ± 0.0074 | 0.4521 ± 0.0027
8 | WIYKIVTYEKKS | 0.145 ± 0.049 | 0.701 ± 0.05 | 0.701 ± 0.03 | 0.648 ± 0.041 | 0.705 ± 0.029 | 0.633 ± 0.038 | 0.633 ± 0.036 | 0.702 ± 0.0082
9 | SWRRCLSSIPVA | 0.425 ± 0.013 | 0.383 ± 0.0085 | 0.416 ± 0.012 | 0.319 ± 0.026 | 0.457 ± 0.0086 | 0.276 ± 0.0056 | 0.303 ± 0.035 | 0.438 ± 0.012
